Source: patent US20060269997A1 (Genentech, published 2006)

B1: Gly 65** (ligand)
chain: APMAEGGGQNHHEVVKFMDVYQRSYCHPIETLVDIFQEYPDEIEYIFKPSCVPLMRCGGCCNDEALECVPTEESNITMQIMRIKPHQGQHIGEMSFLQHNKCECRPKKD
B2: Phe 17* (ligand)
chain: APMAEGGGQNHHEVVKAMDVYQRSYCHPIETLVDIFQEYPDEIEYIFKPSCVPLMRCGGCCNDEGLECVPTEESNITMQIMRIKPHQGQHIGEMSFLQHNKCECRPKKD
B3: Phe 47** (ligand)
chain: APMAEGGGQNHHEVVKFMDVYQRSYCHPIETLVDIFQEYPDEIEYIAKPSCVPLMRCGGCCNDEGLECVPTEESNITMQIMRIKPHQGQHIGEMSFLQHNKCECRPKKD
B4: Leu 66** (ligand)
chain: APMAEGGGQNHHEVVKFMDVYQRSYCHPIETLVDIFQEYPDEIEYIFKPSCVPLMRCGGCCNDEGAECVPTEESNITMQIMRIKPHQGQHIGEMSFLQHNKCECRPKKD
B5: Pro 106 (ligand)
chain: APMAEGGGQNHHEVVKFMDVYQRSYCHPIETLVDIFQEYPDEIEYIFKPSCVPLMRCGGCCNDEGLECVPTEESNITMQIMRIKPHQGQHIGEMSFLQHNKCECRAKKD
B6: Ile 91 (ligand)
chain: APMAEGGGQNHHEVVKFMDVYQRSYCHPIETLVDIFQEYPDEIEYIFKPSCVPLMRCGGCCNDEGLECVPTEESNITMQIMRIKPHQGQHAGEMSFLQHNKCECRPKKD
B7: Tyr 21** (ligand)
chain: APMAEGGGQNHHEVVKFMDVAQRSYCHPIETLVDIFQEYPDEIEYIFKPSCVPLMRCGGCCNDEGLECVPTEESNITMQIMRIKPHQGQHIGEMSFLQHNKCECRPKKD
B8: Lys 101 (ligand)
chain: APMAEGGGQNHHEVVKFMDVYQRSYCHPIETLVDIFQEYPDEIEYIFKPSCVPLMRCGGCCNDEGLECVPTEESNITMQIMRIKPHQGQHIGEMSFLQHNACECRPKKD
B9: Ile 46* (ligand)
chain: APMAEGGGQNHHEVVKFMDVYQRSYCHPIETLVDIFQEYPDEIEYAFKPSCVPLMRCGGCCNDEGLECVPTEESNITMQIMRIKPHQGQHIGEMSFLQHNKCECRPKKD
B10: Met 18** (ligand)
chain: APMAEGGGQNHHEVVKFADVYQRSYCHPIETLVDIFQEYPDEIEYIFKPSCVPLMRCGGCCNDEGLECVPTEESNITMQIMRIKPHQGQHIGEMSFLQHNKCECRPKKD
B11: His 86** (ligand)
chain: APMAEGGGQNHHEVVKFMDVYQRSYCHPIETLVDIFQEYPDEIEYIFKPSCVPLMRCGGCCNDEGLECVPTEESNITMQIMRIKPAQGQHIGEMSFLQHNKCECRPKKD
B12: Lys 16 (ligand)
chain: APMAEGGGQNHHEVVAFMDVYQRSYCHPIETLVDIFQEYPDEIEYIFKPSCVPLMRCGGCCNDEGLECVPTEESNITMQIMRIKPHQGQHIGEMSFLQHNKCECRPKKD
B13: Ile 83* (ligand)
chain: APMAEGGGQNHHEVVKFMDVYQRSYCHPIETLVDIFQEYPDEIEYIFKPSCVPLMRCGGCCNDEGLECVPTEESNITMQIMRAKPHQGQHIGEMSFLQHNKCECRPKKD
B14: Tyr 25** (ligand)
chain: APMAEGGGQNHHEVVKFMDVYQRSACHPIETLVDIFQEYPDEIEYIFKPSCVPLMRCGGCCNDEGLECVPTEESNITMQIMRIKPHQGQHIGEMSFLQHNKCECRPKKD
B15: Lys 48** (ligand)
chain: APMAEGGGQNHHEVVKFMDVYQRSYCHPIETLVDIFQEYPDEIEYIFAPSCVPLMRCGGCCNDEGLECVPTEESNITMQIMRIKPHQGQHIGEMSFLQHNKCECRPKKD
B16: Ile 43* (ligand)
chain: APMAEGGGQNHHEVVKFMDVYQRSYCHPIETLVDIFQEYPDEAEYIFKPSCVPLMRCGGCCNDEGLECVPTEESNITMQIMRIKPHQGQHIGEMSFLQHNKCECRPKKD
B17: Met 81** (ligand)
chain: APMAEGGGQNHHEVVKFMDVYQRSYCHPIETLVDIFQEYPDEIEYIFKPSCVPLMRCGGCCNDEGLECVPTEESNITMQIARIKPHQGQHIGEMSFLQHNKCECRPKKD

What was measured:
Flt-1 (1-3) monomer = biological target: T1, Flt-1 (1-3) monomer (UniProt P17948 27-331, limits assumed, biotin-labeled in the ELISA of Example 8); experiment: competition ELISA: plate coated with VEGF (8-109), 100 pM biotin-labeled Flt1(1-3), serial dilutions of the competing VEGF (Example 8)
T1 construct: domain: domains 1 to 3; Genentech reagent; also called Flt(1-3); domains 1 to 3 of Flt-1
T1 sequence (P17948 27-331 limits assumed): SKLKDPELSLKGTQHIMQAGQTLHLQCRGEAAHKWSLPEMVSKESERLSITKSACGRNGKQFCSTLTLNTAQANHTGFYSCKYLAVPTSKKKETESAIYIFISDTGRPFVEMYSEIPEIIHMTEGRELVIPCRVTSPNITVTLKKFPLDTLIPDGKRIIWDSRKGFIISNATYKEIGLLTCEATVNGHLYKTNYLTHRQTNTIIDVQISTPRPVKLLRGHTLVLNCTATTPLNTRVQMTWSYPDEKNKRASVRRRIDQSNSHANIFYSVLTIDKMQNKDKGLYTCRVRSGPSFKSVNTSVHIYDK
Method: (§1) After 1 hour, the plates were washed, and the bound protein stained with streptavidin horseradish peroxidase conjugate (Pharmacia) and assayed. Affinities were estimated as IC₅₀ values: the concentration of KDR(1-3) or Flt(1-3) that blocked 50% of protein binding.

KDR (1-3) monomer = biological target: T2, KDR (1-3) monomer (UniProt P35968 20-327, limits assumed, biotin-labeled in the ELISA of Example 8); experiment: competition ELISA: plate coated with VEGF (8-109), 100 pM biotin-labeled KDR(1-3), serial dilutions of the competing VEGF (Example 8)
T2 construct: domain: domains 1 to 3; Genentech reagent; also called domains 1 to 3 of KDR
T2 sequence (P35968 20-327 limits assumed): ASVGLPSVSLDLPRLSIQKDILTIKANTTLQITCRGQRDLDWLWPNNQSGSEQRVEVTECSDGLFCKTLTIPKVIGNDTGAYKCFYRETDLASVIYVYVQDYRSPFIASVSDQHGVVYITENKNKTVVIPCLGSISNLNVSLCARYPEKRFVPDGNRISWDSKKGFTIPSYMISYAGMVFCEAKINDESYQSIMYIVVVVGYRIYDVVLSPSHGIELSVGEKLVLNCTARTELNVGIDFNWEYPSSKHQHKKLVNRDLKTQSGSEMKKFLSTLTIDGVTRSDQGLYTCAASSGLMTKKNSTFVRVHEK
Method: as §1

Binder | fold reduction in binding (IC50 variant / IC50 VEGF(1-109)) (Flt-1 (1-3) monomer) [fold] | fold reduction in binding (IC50 variant / IC50 VEGF(1-109)) (KDR (1-3) monomer) [fold]
B1 | 1 | 1
B2 | 34 | 45
B3 | 3 | 5
B4 | 10 | 1
B5 | 1 | 1
B6 | 1 | 1
B7 | 29 | 19
B8 | 1 | 1
B9 | 4 | 96
B10 | 9 | 5
B11 | 1 | 2
B12 | 1 | 1
B13 | 7 | 89
B14 | 7 | 6
B15 | 1 | 1
B16 | 3 | 21
B17 | 5 | 9
